Molecular target: the molecule itself
Test: AUC

B1: 217-MGD (extended OPA1-MGD, residues 217–580 and 938–960 connected by the artificial linker) (domain or fragment)
chain: not shown
stoichiometry N: 2

— article PMC7337494 (The Journal of Cell Biology, 2020)
